{"source": "patent US20230039109A1", "about": "(Novartis, published 2023)", "target": "T1, human CD73 expressed on the cell surface (human, UniProt P21589 27-549)", "T1 construct": "whole, on cells; also called surface CD73", "T1 sequence (looked up)": "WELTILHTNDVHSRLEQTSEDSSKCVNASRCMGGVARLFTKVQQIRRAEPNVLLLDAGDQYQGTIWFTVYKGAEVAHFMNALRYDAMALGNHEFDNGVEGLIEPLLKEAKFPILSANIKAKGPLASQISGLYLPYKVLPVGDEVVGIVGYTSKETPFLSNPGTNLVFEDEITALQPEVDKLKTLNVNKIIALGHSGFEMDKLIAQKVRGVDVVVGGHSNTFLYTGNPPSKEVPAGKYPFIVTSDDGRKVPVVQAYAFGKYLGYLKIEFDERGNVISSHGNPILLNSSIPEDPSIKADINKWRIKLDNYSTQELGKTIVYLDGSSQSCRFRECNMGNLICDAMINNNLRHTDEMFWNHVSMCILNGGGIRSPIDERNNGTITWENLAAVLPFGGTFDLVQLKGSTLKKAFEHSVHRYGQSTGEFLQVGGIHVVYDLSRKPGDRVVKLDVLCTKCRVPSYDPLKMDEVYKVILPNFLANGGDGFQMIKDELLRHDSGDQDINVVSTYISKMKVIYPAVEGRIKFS", "assay": "flow cytometry, biotinylated antibody in human whole blood, CD8+ T cells, streptavidin-APC", "procedure": "Whole blood target engagement was assessed by flow cytometry using whole blood from healthy human donors. Briefly, biotinylated antibodies were incubated with whole blood for 30 minutes prior to red blood cell lysis and fixation. Fixed cells were stained for CD3 and CD8 to identify CD8+ T cells, and streptavidin-APC to detect biotin. After staining, the cell were washed and subjected to flow cytometry analysis."}
{"binder": "anti-CD73 antibody 356.B (antibody, human IgG4 S228P, kappa, V domains shown, IgG4 S228P/L235E format; The last heavy chain residue X is K or absent; Biotinylated in the whole blood flow cytometry assay) VH: QVQLQESGPGLVKPSETLSLTCTVSGGSIEGRYWSWIRQPPGKGLEWIGYIYGSGSTKYNPSLKSRVTISVDTSKNQFSLKLSSVTAADTAVYYCARESQESPYNNWFDPWGQGTLVTVSS VL: DIQMTQSPSSVSASVGDRVTITCRASQGISSWLAWYQQKPGKAPKLLIYAASSLQSGVPSRFSGSGSGTDFTLTISSLQPEDFATYYCQQGNSFPRTFGGGTKVEIKR", "values": [{"measurement": "EC50 (read off the curve)", "value": "~6", "unit": "ng/mL"}]}
